Ends that are not written are not given here. * marks the point of attachment. Biotin = O=C1N[C@H]2[C@H](CS[C@H]2CCCCC(=O)*)N1
target: purified human PCNA (human, UniProt P12004 1-261); assay: ELISA
Sequence (P12004 whole entry): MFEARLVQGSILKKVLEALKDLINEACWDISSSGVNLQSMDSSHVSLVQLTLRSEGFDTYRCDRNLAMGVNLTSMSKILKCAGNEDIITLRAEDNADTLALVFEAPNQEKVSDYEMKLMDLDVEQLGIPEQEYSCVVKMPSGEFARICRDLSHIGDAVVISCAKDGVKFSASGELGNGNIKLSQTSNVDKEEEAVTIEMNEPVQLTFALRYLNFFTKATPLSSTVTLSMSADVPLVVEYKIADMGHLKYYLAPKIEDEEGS

Q: Does Biotin-SGSGDPLWCQSAVFLIRMWLRSRN [pep103, biotinylated synthetic peptide] bind?
A: binds

Q: Does Biotin-SGSGKLFNLHINSAVLQKKITDYF [pogo, biotinylated peptide derived from the Drosophila Pogo transposase] bind?
A: binds

Q: Does Biotin-SGSGDPDCGCSRRGCVLRMIRRRN (cysteine pairing not given here) [pep102, biotinylated synthetic peptide] bind?
A: binds
